Test results: the supplement of paper PMC5998384

What was measured:
[1] = tested on: HeLa Kyoto; experiment: solubility in G1/S (NP-40 vs SDS abundance) (log2 ratio); higher = more soluble; conditions: cell cycle stage: G1/S
[2] = tested on: HeLa Kyoto; experiment: melting temperature (median over replicates), in situ; higher = more thermally stable
[3] = tested on: HeLa Kyoto; experiment: solubility change mitosis vs G1/S (difference of NP-40 vs SDS log2 ratios) (log2 ratio difference); higher = more soluble in mitosis
[4] = tested on: HeLa Kyoto; experiment: thermal stability score vs G1/S (z-score of summed log2 fold changes over temperatures); higher = more thermally stable than in G1/S
[5] = cell cycle stage: early G1 (4.5 h after nocodazole release)
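Throughout, for melting temperature (median over replicates), in situ: HeLa Kyoto cells synchronized by double thymidine or nocodazole block, proteins quantified by TMT10plex mass spectrometry, three independent biological replicates.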
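Throughout, for solubility change mitosis vs G1/S (difference of NP-40 vs SDS log2 ratios): synchronized HeLa Kyoto cells (double thymidine block for G1/S, nocodazole release for mitosis), protein amounts in NP-40 versus SDS lysates quantified by mass spectrometry, three biological replicates.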
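Throughout, for solubility in G1/S (NP-40 vs SDS abundance): HeLa Kyoto cells arrested at G1/S by double thymidine block, proteins quantified by TMT10plex mass spectrometry in mild NP-40 versus SDS extracts, three biological replicates.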
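Throughout, for thermal stability score vs G1/S (z-score of summed log2 fold changes over temperatures): synchronized HeLa Kyoto cells, proteins quantified by TMT10plex mass spectrometry, three biological replicates, mitosis taken 0.5 h after nocodazole release, G1/S directly after double thymidine block.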

| Sequence | solubility in G1/S (log2) [1] | melting temperature ([2]; cell cycle stage: G1/S) [°C] | melting temperature ([2]; cell cycle stage: mitosis) [°C] | solubility change mitosis (log2) [3] | thermal stability score [4, 5] | thermal stability score ([4]; cell cycle stage: mitosis) |
| --- | --- | --- | --- | --- | --- | --- |
| MGKKSRVKTQKSGTGATATVSPKEILNLTSELLQKCSSPAPGPGKEWEEYVQIRTLVEKIRKKQKGLSVTFDGKREDYFPDLMKWASENGASVEGFEMVNFKEEGFGLRATRDIKAEELFLWVPRKLLMTVESAKNSVLGPLYSQDRILQAMGNIALAFHLLCERASPNSFWQPYIQTLPSEYDTPLYFEEDEVRYLQSTQAIHDVFSQYKNTARQYAYFYKVIQTHPHANKLPLKDSFTYEDYRWAVSSVMTRQNQIPTEDGSRVTLALIPLWDMCNHTNGLITTGYNLEDDRCECVALQDFRAGEQIYIFYGTRSNAEFVIHSGFFFDNNSHDRVKIKLGVSKSDRLYAMKAEVLARAGIPTSSVFALHFTEPPISAQLLAFLRVFCMTEEELKEHLLGDSAIDRIFTLGNSEFPVSWDNEVKLWTFLEDRASLLLKTYKTTIEEDKSVLKNHDLSVRAKMAIKLRLGEKEILEKAVKSAAVNREYYRQQMEEKAPLPKYEESNLGLLESSVGDSRLPLVLRNLEEEAGVQDALNIREAISKAKATENGLVNGENSIPNGTRSENESLNQESKRAVEDAKGSSSDSTAGVKE [SETD3] | -0.0122 | 52.8 | 53.5 | -0.0646 | 1.13 | 1.44 |
| MGKRGSRSQSQLLNTLTKKQKKHLRDFGEEHPFYDRVSRKEAKPQICQLSESSDSSDSESDSESEPQQVSGYHRLLATLKNVSEEEEEDEEEEEEEDSIVDDAEMNDEDGGSDVSVEEEMAAESTESPENVALSADPEGKEDGEEPPGTSQTSPEEFTDAKHESLFSLETNFLEEESGDNSSLKASQDPFLQHVNKELKEKAIQAVATNPKTTHELKWPILGQLFFSSKFQKLETFKPPKDIDLKSLHLQKPLESTWTKTNSQFLSGPQKSSSPFTPLQKELFLIMNSYRDLFYPERTALKNGEEIRHVYCLHVINHILKANAQVLGNNSRRRSQKFGVGDDDDFRDQGLTRPKVLIVVPFREAALRVVQLFISLLEGDSKKKIIVSNKKRFQGEYGSDPEERPPNLKRPEDYEAVFVGNIDDHFRIGVAILQRSIRLYAPFYSSDILIASPLGLRTIIGGEGEKKRDFDFLSSIELLIIDQADIYLMQNWEHVLHLMNHMNLLPLDSHGVDFSRVRMWSLNNWSKYYRQTLLFGALQDAQINSVFNKYCVNMQGQVAVRNVPMTGSISHVLVQLPHVFQRMEAENLASVIDARFNFFVNKILPQYRDAVMSHTLIYIPSYFDFVRLRNYFKKEELNFTHICEYTQKSGVSRARHFFLQGEKQFLLFTERFHFYKRYTIKGIRNLIFYELPTYPHFYSEICNMLRATNRGEEATWTCTVLYSKYDAQRLAAVVGVERAAQMLQSNKNVHLFITGEK [DIEXF] | -0.69 | 47.2 | 49.3 | 0.17 | 0.651 | 2.11 |
| MGKSRTKRFKRPQFSPTGDCQAEAAAAANGTGGEEDDGPAAELLEKLQHPSAEVRECACAGLARLVQQRPALPGLARRDAVRRLGPLLLDPSLAVRETAAGALRNLSACGGFEVCDDMVTKDIMTPLVALLKECSAGLDSNEMSLQEKKDQNRNSIENIANETVNVLWNICECSSRAVSIFNKEGCLEIVLKYLSRFPTNVDLAISVAYCLQTVTEDNPELLKSFSATALNMLESALLSPVSSMESLLLKTLVAGTIWNLKDIIPCKSQAEIINALLKILSEVLGMDAGEMVIQMKEAETQRLKTAAEAEEILENTNGDDLIEDDEMEGISHKRRVRRKTFVSDLLPPTDKELRETIALLTAQQTALEIIVNMCCNEDPSDDEWEELSSSDESDAFMENSFSECGGQLFSPLCLSHEVHTALTNYLIPKKIFEKTAFPNSIAVDLCSRNPTWKPLIRKMNTIQCRALFCLQSLVSLLDVEHLGGAAALQTLAQHLSQLLFSQPDFAKHVDFLEAISSALRALLQTMASKNISQCMTPDQLMTLCKAGIHSSNVGVRVNVVSILGITGSVLAKEDGTLETLKNIGCFLLEVTTKDPSLVVAGEALDALFDVFADGKEAERASIQIKLLSALKEFQPVFKMKIRKEGRGNYSTDQLCVLDNVKMNLRRFIAYQETVEKRLTS [HEATR3] | 0.0745 | 48.7 | 48.8 | -0.138 | 1.72 | 3.45 |
| MGKVRGLRARVHQAAVRPKGEAAPGPAPPAPEATPPPASAAGKDWAFINTNIFARTKIDPSALVQKLELDVRSVTSVRRGEAGSSARSVPSIRRGAEAKTVLPKKEKMKLRREQWLQKIEAIKLAEQKHREERRRRATVVVGDLHPLRDALPELLGLEAGSRRQARSRESNKPRPSELSRMSAAQRQQLLEEERTRFQELLASPAYRASPLVAIGQTLARQMQLEDGGQL [FAM207A] | -0.11 | 48.3 | 48.5 | 0.342 | 0.13 | 0.618 |
| MGLLRIMMPPKLQLLAVVAFAVAMLFLENQIQKLEESRSKLERAIARHEVREIEQRHTMDGPRQDATLDEEEDMVIIYNRVPKTASTSFTNIAYDLCAKNKYHVLHINTTKNNPVMSLQDQVRFVKNITSWKEMKPGFYHGHVSYLDFAKFGVKKKPIYINVIRDPIERLVSYYYFLRFGDDYRPGLRRRKQGDKKTFDECVAEGGSDCAPEKLWLQIPFFCGHSSECWNVGSRWAMDQAKYNLINEYFLVGVTEELEDFIMLLEAALPRFFRGATELYRTGKKSHLRKTTEKKLPTKQTIAKLQQSDIWKMENEFYEFALEQFQFIRAHAVREKDGDLYILAQNFFYEKIYPKSN [HS2ST1] | 0.0386 | 55.1 | 55.5 | 0.0318 | -0.242 | 0.814 |
